Laboratory results reported in patent US20250145722A1 (TRUEBINDING, published 2025).

Columns and labels:
[1] = target: T1, human Galectin-3 (Gal3), full-length recombinant (human, UniProt P17931 2-250); experiment: blocking ELISA, Gal3 coated, VEGFR3-Fc, antibody 20 µg/ml
T1 construct: treated here as one molecule; also called hGAL3; hGal3
Description: (§1) After incubating the plate at 4° C. overnight, the plate was washed three times with PBST. The plate was then blocked for an hour with 2% BSA in PBST at room temperature with gentle rocking. […] The respective plates were incubated for an hour at room temperature with gentle rocking. Thereafter, the plate was washed three times with PBST. Peroxidase AffiniPure F(ab′)₂ Fragment Goat Anti-Human IgG (H+L) polyclonal antibody was then added to the wells at 1:4000 dilution in 2% BSA in PBST. The plate was incubated at room temperature for an hour with gentle rocking and then washed three times with PBST. TMB substrate was then added to each well. The reaction was stopped with 1M HCl and read using a plate reader (Molecular Devices, SpectraMax M4) at absorbance of 450 nm.

[2] = target: T1, human Galectin-3 (Gal3), full-length …; experiment: blocking ELISA, Gal3 coated, EGFR-Fc, antibody 20 µg/ml
Description: as §1

[3] = target: T1, human Galectin-3 (Gal3), full-length …; experiment: blocking ELISA, Gal3 coated, PDGFR beta-Fc, antibody 20 µg/ml
Description: as §1

[4] = target: T1, human Galectin-3 (Gal3), full-length …; experiment: blocking ELISA, Gal3 coated, PDGFR alpha-Fc, antibody 20 µg/ml
Description: as §1

[5] = target: T1, human Galectin-3 (Gal3), full-length …; experiment: blocking ELISA, Gal3 coated, TREM2-His
Description: The plate was incubated for an hour at room temperature with gentle rocking. Thereafter, the plate was washed three times with PBST. Anti-6× His tag antibody-HRP (Abcam, ab1269) was then added to the wells at 1:3000 dilution in 2% BSA in PBST. The plate was incubated at room temperature for an hour with gentle rocking and then washed three times with PBST.

[6] = target: T1, human Galectin-3 (Gal3), full-length …; experiment: blocking ELISA, Gal3 coated, biotin-Tau aggregates
Description: (§2) The plate was incubated for an hour at room temperature with gentle rocking. Thereafter, the plate was washed three times with PBST. […] The plate was incubated at room temperature for an hour with gentle rocking and then washed three times with PBST.

[7] = target: T1, human Galectin-3 (Gal3), full-length …; experiment: blocking ELISA, Gal3 coated, biotin-Abeta42 peptide
[8] = target: T1, human Galectin-3 (Gal3), full-length …; experiment: blocking ELISA, Gal3 coated, biotin-Abeta42 oligomer
[9] = target: T1, human Galectin-3 (Gal3), full-length …; experiment: blocking ELISA, Gal3 coated, biotin-α-synuclein aggregates
Description: as §2

[10] = target: T1, human Galectin-3 (Gal3), full-length …; experiment: not stated. Exponent is printed without a minus sign; value taken as a negative power of ten because the column is a KD in M
[11] = target: T1, human Galectin-3 (Gal3), full-length …; experiment: cell-based or functional assay
[12] = target: T1, human Galectin-3 (Gal3), full-length …; experiment: blocking ELISA, Gal3 coated, biotin-TLR4
[13] = target: T1, human Galectin-3 (Gal3), full-length …; experiment: blocking ELISA, Gal3 coated, biotin-APP695

T1 sequence (P17931 2-250 limits assumed): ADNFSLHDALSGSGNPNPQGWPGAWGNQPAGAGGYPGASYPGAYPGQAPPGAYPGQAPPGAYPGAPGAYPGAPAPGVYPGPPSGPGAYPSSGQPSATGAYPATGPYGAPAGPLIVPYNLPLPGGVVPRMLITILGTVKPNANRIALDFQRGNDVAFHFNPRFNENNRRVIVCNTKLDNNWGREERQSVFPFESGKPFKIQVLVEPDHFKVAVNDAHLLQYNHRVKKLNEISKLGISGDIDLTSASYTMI

B1: 4G2.2G6 (antibody, human IgG4 S228P, kappa, V domains shown)
VH: QIQLVQSGPDLKKPGETVKISCKASGYTFTTYVMSWVKQAPGKDLKWMGWINTHSGVPTYADDFKGRFDFSLETSANTAFLQINNLKNEDTATYFCTRDGNDGDAMDNWGQGTSVTVSS
VL: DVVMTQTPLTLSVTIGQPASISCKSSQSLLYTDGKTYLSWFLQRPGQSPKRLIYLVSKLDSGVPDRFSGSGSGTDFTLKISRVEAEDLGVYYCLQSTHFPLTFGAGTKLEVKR
[1]
  % blocking of Gal3-VEGFR3 binding: < 30%

B2: 24D12.2H9 (antibody, human IgG4 S228P, kappa, V domains shown)
VH: QVQLKQSGPGLVQPSQSLSITCTVSGFSLTSYGVHWVRQAPGKGLEWLGVIWSGGSTDYNAAFMSRLSISKDNSKSQVFFKMNSLQADDTAIYYCAKSPDGYDVAWFGYWGQGTLVTVSA
VL: DIVMTQSHKFMSTSVGDRVSITCKASQDVRTAVAWYQQKPGQSPKLLIYWASTRHTGVPDRFTGSGSGTDFTLTLSNVQSEDLADYFCQQYSSYPWTFGGGTKLEIKR
[2]
  % blocking of Gal3-EGFR binding: < 30%
[1]
  % blocking of Gal3-VEGFR3 binding: < 30%
[3]
  % blocking of Gal3-PDGFR beta binding: < 30%
[4]
  % blocking of Gal3-PDGFR alpha binding: < 30%

B3: F847C.11B1 (antibody, human IgG4 S228P, kappa, V domains shown)
VH: EVQLQQSGPELVKPGASVKISCKASGNTFTDHNMHWVKQSHGKSLEWIGYIYPYNGGTGYNQKFKSKATLTVDNSSSTVYMELRSLTSEDSAVYYCARGEYDYLAWFAYWGQGTLVTVSA
VL: EIVLTQSPASLSVTTGEKVTIRCITSIDIDDDMNWYQQKPGEPPKLLISEGNTLRPGVPSRFSSSGYGTDFVFTIENTLSEDVADYYCLQSDNKPLTFGAGTKLELKR
notes: also called 847.11B1
[5]
  % blocking of Gal3-TREM2 binding: < 47%
[6]
  % blocking of Gal3-Tau aggregates binding: < 50%
[7]
  % blocking of Gal3-Abeta42 peptide binding: < 46%
[8]
  % blocking of Gal3-Abeta42 oligomer binding: < 26%
[9]
  % blocking of Gal3-α-synuclein aggregates binding: < 50%
[10]
  Kd: 4.29 nM

B4: F847C.10B9 (antibody, human IgG4 S228P, kappa)
heavy: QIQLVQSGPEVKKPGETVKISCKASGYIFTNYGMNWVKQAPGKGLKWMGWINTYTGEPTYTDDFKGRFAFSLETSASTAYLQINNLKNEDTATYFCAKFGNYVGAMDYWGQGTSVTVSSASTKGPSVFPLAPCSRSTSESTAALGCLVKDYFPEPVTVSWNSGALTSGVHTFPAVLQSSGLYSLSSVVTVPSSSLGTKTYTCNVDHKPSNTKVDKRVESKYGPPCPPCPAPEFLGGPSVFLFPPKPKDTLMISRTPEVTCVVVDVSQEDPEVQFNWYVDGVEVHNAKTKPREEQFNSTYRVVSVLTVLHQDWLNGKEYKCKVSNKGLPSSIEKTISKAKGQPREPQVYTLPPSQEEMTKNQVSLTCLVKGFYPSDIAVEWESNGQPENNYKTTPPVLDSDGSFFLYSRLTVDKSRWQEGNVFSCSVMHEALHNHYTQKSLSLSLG
light: DIRMTQSPSSLSASLGDTITITCHASQNINVWLSWYQQKPGNIPKLLIYKASNLHTGVPSRFSGSGSGTGFTLTISSLQPEDIATYYCQQGQSYPYTFGGGTKLELKRTVAAPSVFIFPPSDEQLKSGTASVVCLLNNFYPREAKVQWKVDNALQSGNSQESVTEQDSKDSTYSLSSTLTLSKADYEKHKVYACEVTHQGLSSPVTKSFNRGEC
notes: also called 847.10B9
[6]
  % blocking of Gal3-Tau aggregates binding: > 90%
[9]
  % blocking of Gal3-α-synuclein aggregates binding: > 90%
[10]
  Kd: 13600 nM

B5: F847C.12F12 (antibody, V domains shown)
VH: QIQLVQSGPELKKPGETVKISCKASGYTFTNYGMNWVKQAPGKGLKWMGWINTYTGEPTYVDDFKGRFAFSLETSASTAYLRINNLKNEDTATYFCAKFGNYVGAMDYWGQGTSVTVSS
VL: DIQVIQSPSSLSASLGDTITITCHASQNINVWLSWYQQKPGNIPKLLIYKASNLHTGVPSRFSGSGSGTGFTLTISSLQPEDIATYYCQQGQSYPYTFGGGTKLELKR
notes: also called 84712F12
[6]
  % blocking of Gal3-Tau aggregates binding: > 90%
[9]
  % blocking of Gal3-α-synuclein aggregates binding: > 90%
[10]
  Kd: 19.2 nM

B6: mTB001 (antibody, mouse IgG2a, V domains shown)
VH: QIQLVQSGPELKKPGETVKISCKASGYTFTNYGMNWVKQAPGKGLKWMGWINTNTGEPTYVEEFKGRFAFSLETSASTAYLQINNLKNEDTATYFCAPYDNFFAYWGQGTLVTVSA
VL: DIVITQDELSNPVTSGESVSISCRSSKSLLYKDGKTYLNWFLQRPGQSPQLLIYLMSTHASGVSDRFSGSGSGTDFTLEISRVKAEDVGVYYCQQLVDYPLTFGAGTKLELKR
notes: also called mIMT001; murine IMT001
[11]
  decrease in TGFβ induction of ColA1 mRNA in LX2 cells (qRT-PCR): 63%
[2]
  % blocking of Gal3-EGFR binding: > 70%
[3]
  % blocking of Gal3-PDGFR beta binding: > 70%
[4]
  % blocking of Gal3-PDGFR alpha binding: > 70%

B7: 15G7.2A7 (antibody, human IgG4 S228P, kappa, V domains shown)
VH: EVQLQQSGPELVKPGASVKISCKASGYTFTDYYMNWVKQSHGKSLEWIGDINPNNGGTNYNQKFKGKATLTVDKSSSTAYMELRSLTSEDSAVYYCTSGYGFPYWGQGTLVTVSA
VL: DIQMNQSPSSLSASLGDTISITCRASQNINIWLSWYQQKPGNIPQLLIYKASNLHTGVPSRFSGSGSGTDFTLTISSLQPEDIATYYCLQGQSYPLTFGAGTKLVMKR
notes: also called 15FG7.2A7
[5]
  % blocking of Gal3-TREM2 binding: > 90%
[12]
  % blocking of Gal3-TLR4 binding: > 90%
[13]
  % blocking of Gal3-APP695 binding: > 90%
[6]
  % blocking of Gal3-Tau aggregates binding: > 90%
[7]
  % blocking of Gal3-Abeta42 peptide binding: > 90%
[9]
  % blocking of Gal3-α-synuclein aggregates binding: > 90%
